Source: ChEMBL document CHEMBL4229398, “Activities of recombinant human bleomycin hydrolase on bleomycins and engineered analogues revealing new opportunities to overcome bleomycin-induced pulmonary toxicity” (Bioorg Med Chem Lett, 2018)

Assays:
Format in all cases: ADME
Bleomycin hydrolase [1] = target: T1, Bleomycin hydrolase (Homo sapiens, UniProt Q13867); experiment: Substrate activity at recombinant human N-terminal His6-tagged BLMH expressed in Escherichia coli BL21(DE3) assessed as Kcat to Km ratio measured after 1 hr by HPLC-based Michaelis-Menten plot analysis relative to BLM B2
T1 sequence (Q13867 whole entry): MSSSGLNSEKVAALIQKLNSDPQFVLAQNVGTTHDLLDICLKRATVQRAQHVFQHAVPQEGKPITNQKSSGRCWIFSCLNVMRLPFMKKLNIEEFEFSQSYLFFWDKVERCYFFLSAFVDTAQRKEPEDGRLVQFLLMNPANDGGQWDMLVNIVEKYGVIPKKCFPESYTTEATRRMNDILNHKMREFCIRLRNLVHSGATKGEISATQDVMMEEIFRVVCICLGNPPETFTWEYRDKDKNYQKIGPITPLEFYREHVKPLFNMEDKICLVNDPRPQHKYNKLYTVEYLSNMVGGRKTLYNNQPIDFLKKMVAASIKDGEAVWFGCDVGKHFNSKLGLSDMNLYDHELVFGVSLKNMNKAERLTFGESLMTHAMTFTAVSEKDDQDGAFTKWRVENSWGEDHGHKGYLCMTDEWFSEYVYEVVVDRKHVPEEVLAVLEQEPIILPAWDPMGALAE

Bleomycin hydrolase [2] = target: T1, Bleomycin hydrolase; experiment: (§1) Substrate activity at recombinant human N-terminal His6-tagged BLMH expressed in Escherichia coli BL21(DE3) measured after 1 hr by HPLC-based Michaelis-Menten plot analysis
Bleomycin hydrolase [3] = target: T1, Bleomycin hydrolase; experiment: Substrate activity at recombinant human N-terminal His6-tagged BLMH expressed in Escherichia coli BL21(DE3) assessed as Kcat to Km ratio measured after 1 hr by HPLC-based Michaelis-Menten plot analysis
Bleomycin hydrolase [4] = target: T1, Bleomycin hydrolase; experiment: (§2) Substrate activity at recombinant human BLMH expressed in baculovirus infected Sf9 insect cells assessed as Kcat to Km ratio
[5] = substrate: Cc1c(N)nc([C@H](CC(N)=O)NC[C@H](N)C(N)=O)nc1C(=O)N[C@H](C(=O)N[C@H](C)[C@@H](O)[C@H](C)C(=O)N[C@H](C(=O)NCCc1nc(-c2nc(C(=O)NCCCCNC(=N)N)cs2)cs1)[C@@H](C)O)[C@@H](O[C@@H]1O[C@@H](CO)[C@@H](O)[C@H](O)[C@@H]1O[C@H]1O[C@H](CO)[C@@H](O)[C@H](OC(N)=O)[C@@H]1O)c1c[nH]cn1; experiment: as §1
[6] = substrate: [H][C@]1(O[C@@H]2[C@H](O[C@@H](c3c[nH]cn3)[C@H](NC(=O)c3nc([C@H](CC(N)=O)NC[C@H](N)C(N)=O)nc(N)c3C)C(=O)N[C@H](C)[C@@H](O)CC(=O)N[C@H](C(=O)NCCc3nc(-c4nc(C(=O)NCCCC(N)CC(=O)NCCCNCCCCN)cs4)cs3)[C@@H](C)O)O[C@@H](C)[C@@H](O)[C@@H]2O)O[C@H](CO)[C@@H](O)[C@H](OC(N)=O)[C@@H]1O; experiment: as §1
[7] = substrate: [H][C@]1(O[C@@H]2[C@H](O[C@@H](c3c[nH]cn3)[C@H](NC(=O)c3nc([C@H](CC(N)=O)NC[C@H](N)C(N)=O)nc(N)c3C)C(=O)N[C@H](C)[C@@H](O)CC(=O)N[C@H](C(=O)NCCc3nc(-c4nc(C(=O)NCCCC(N)CC(=O)NCCCNCCCCN)cs4)cs3)[C@@H](C)O)O[C@@H](CO)[C@@H](O)[C@@H]2O)O[C@H](CO)[C@@H](O)[C@H](OC(N)=O)[C@@H]1O; experiment: as §1
[8] = substrate: [H][C@]1(O[C@@H]2[C@H](O[C@@H](c3c[nH]cn3)[C@H](NC(=O)c3nc([C@H](CC(N)=O)NC[C@H](N)C(N)=O)nc(N)c3C)C(=O)N[C@H](C)[C@@H](O)[C@H](C)C(=O)N[C@H](C(=O)NCCc3nc(-c4nc(C(=O)NCCC(=N)N)cs4)cs3)[C@@H](C)O)O[C@@H](C)[C@@H](O)[C@@H]2O)O[C@H](CO)[C@@H](O)[C@H](OC(N)=O)[C@@H]1O; experiment: as §1
[9] = substrate: [H][C@]1(O[C@@H]2[C@H](O[C@@H](c3c[nH]cn3)[C@H](NC(=O)c3nc([C@H](CC(N)=O)NC[C@H](N)C(N)=O)nc(N)c3C)C(=O)N[C@H](C)[C@@H](O)[C@H](C)C(=O)N[C@H](C(=O)NCCc3nc(-c4nc(C(=O)NCCC(=N)N)cs4)cs3)[C@@H](C)O)O[C@@H](CO)[C@@H](O)[C@@H]2O)O[C@H](CO)[C@@H](O)[C@H](OC(N)=O)[C@@H]1O; experiment: as §1
[10] = substrate: [H][C@]1(O[C@@H]2[C@H](O[C@@H](c3c[nH]cn3)[C@H](NC(=O)c3nc([C@H](CC(N)=O)NC[C@H](N)C(N)=O)nc(N)c3C)C(=O)N[C@H](C)[C@@H](O)[C@H](C)C(=O)N[C@H](C(=O)NCCc3nc(-c4nc(C(=O)NCCC[S+](C)C)cs4)cs3)[C@@H](C)O)O[C@@H](C)[C@@H](O)[C@@H]2O)O[C@H](CO)[C@@H](O)[C@H](OC(N)=O)[C@@H]1O; experiment: as §1
[11] = substrate: Cc1c(N)nc([C@H](CC(N)=O)NC[C@H](N)C(N)=O)nc1C(=O)N[C@H](C(=O)N[C@H](C)[C@@H](O)[C@H](C)C(=O)N[C@H](C(=O)NCCc1nc(-c2nc(C(=O)NCCCCNC(=N)N)cs2)cs1)[C@@H](C)O)[C@@H](O[C@@H]1O[C@@H](CO)[C@@H](O)[C@H](O)[C@@H]1O[C@H]1O[C@H](CO)[C@@H](O)[C@H](OC(N)=O)[C@@H]1O)c1c[nH]cn1; experiment: as §2

Cc1c(N)nc([C@H](CC(N)=O)NC[C@H](N)C(N)=O)nc1C(=O)N[C@H](C(=O)N[C@H](C)[C@@H](O)CC(=O)N[C@H](C(=O)NCCc1nc(-c2nc(C(=O)NCCCC(N)CC(=O)NCCCNCCCCN)cs2)cs1)[C@@H](C)O)[C@@H](O[C@@H]1O[C@@H](C)[C@@H](O)[C@H](O)[C@@H]1O[C@H]1O[C@H](CO)[C@@H](O)[C@H](OC(N)=O)[C@@H]1O)c1c[nH]cn1 (stereo partly drawn)
fold change (FC) (Bleomycin hydrolase [1]): 0.06

Cc1c(N)nc([C@H](CC(N)=O)NC[C@H](N)C(N)=O)nc1C(=O)N[C@H](C(=O)N[C@H](C)[C@@H](O)[C@H](C)C(=O)N[C@H](C(=O)NCCc1nc(-c2nc(C(=O)NCCC(=N)N)cs2)cs1)[C@@H](C)O)[C@@H](O[C@@H]1O[C@@H](CO)[C@@H](O)[C@H](O)[C@@H]1O[C@H]1O[C@H](CO)[C@@H](O)[C@H](OC(N)=O)[C@@H]1O)c1c[nH]cn1
fold change (FC) (Bleomycin hydrolase [1]): 0.19

Cc1c(N)nc([C@H](CC(N)=O)NC[C@H](N)C(N)=O)nc1C(=O)N[C@H](C(=O)N[C@H](C)[C@@H](O)CC(=O)N[C@H](C(=O)NCCc1nc(-c2nc(C(=O)NCCCC(N)CC(=O)NCCCNCCCCN)cs2)cs1)[C@@H](C)O)[C@@H](O[C@@H]1O[C@@H](CO)[C@@H](O)[C@H](O)[C@@H]1O[C@H]1O[C@H](CO)[C@@H](O)[C@H](OC(N)=O)[C@@H]1O)c1c[nH]cn1 (stereo partly drawn)
fold change (FC) (Bleomycin hydrolase [1]): 0.06

BLEOMYCIN
Kcat (Bleomycin hydrolase [2]): 4 s⁻¹
Km (Bleomycin hydrolase [2]): 592 µM
Kcat/Km (Bleomycin hydrolase [3]): 6.7 ×10⁻³ /microM/s
fold change (FC) (Bleomycin hydrolase [1]): 0.12
Kcat/Km (Bleomycin hydrolase [4]): 5000 M⁻¹ s⁻¹

Cc1c(N)nc([C@H](CC(N)=O)NC[C@H](N)C(N)=O)nc1C(=O)N[C@H](C(=O)N[C@H](C)[C@@H](O)[C@H](C)C(=O)N[C@H](C(=O)NCCc1nc(-c2nc(C(=O)NCCC[S+](C)C)cs2)cs1)[C@@H](C)O)[C@@H](O[C@@H]1O[C@@H](C)[C@@H](O)[C@H](O)[C@@H]1O[C@H]1O[C@H](CO)[C@@H](O)[C@H](OC(N)=O)[C@@H]1O)c1c[nH]cn1
fold change (FC) (Bleomycin hydrolase [1]): 0.11

Cc1c(N)nc([C@H](CC(N)=O)NC[C@H](N)C(N)=O)nc1C(=O)N[C@H](C(=O)N[C@H](C)[C@@H](O)[C@H](C)C(=O)N[C@H](C(=O)NCCc1nc(-c2nc(C(=O)NCCC(=N)N)cs2)cs1)[C@@H](C)O)[C@@H](O[C@@H]1O[C@@H](C)[C@@H](O)[C@H](O)[C@@H]1O[C@H]1O[C@H](CO)[C@@H](O)[C@H](OC(N)=O)[C@@H]1O)c1c[nH]cn1
fold change (FC) (Bleomycin hydrolase [1]): 0.28

B1: Bleomycin hydrolase (Homo sapiens) (protein)
chain: MSSSGLNSEKVAALIQKLNSDPQFVLAQNVGTTHDLLDICLKRATVQRAQHVFQHAVPQEGKPITNQKSSGRCWIFSCLNVMRLPFMKKLNIEEFEFSQSYLFFWDKVERCYFFLSAFVDTAQRKEPEDGRLVQFLLMNPANDGGQWDMLVNIVEKYGVIPKKCFPESYTTEATRRMNDILNHKMREFCIRLRNLVHSGATKGEISATQDVMMEEIFRVVCICLGNPPETFTWEYRDKDKNYQKIGPITPLEFYREHVKPLFNMEDKICLVNDPRPQHKYNKLYTVEYLSNMVGGRKTLYNNQPIDFLKKMVAASIKDGEAVWFGCDVGKHFNSKLGLSDMNLYDHELVFGVSLKNMNKAERLTFGESLMTHAMTFTAVSEKDDQDGAFTKWRVENSWGEDHGHKGYLCMTDEWFSEYVYEVVVDRKHVPEEVLAVLEQEPIILPAWDPMGALAE
Km [5]: 190 µM
kcat [5]: 11 s⁻¹
Km [6]: 720 µM
kcat [6]: 2.5 s⁻¹
kcat/Km [6]: 3500 M⁻¹ s⁻¹
Km [7]: 743 µM
kcat [7]: 2.4 s⁻¹
kcat/Km [7]: 3200 M⁻¹ s⁻¹
Km [8]: 942 µM
kcat [8]: 15 s⁻¹
kcat/Km [8]: 16000 M⁻¹ s⁻¹
Km [9]: 854 µM
kcat [9]: 9.8 s⁻¹
kcat/Km [9]: 11000 M⁻¹ s⁻¹
Km [10]: 805 µM
kcat [10]: 4.9 s⁻¹
kcat/Km [10]: 6100 M⁻¹ s⁻¹
kcat/Km [11]: 12000 M⁻¹ s⁻¹
